The source of these data is PMC10526462.

Series [1] addresses T1, alpha-thrombin (Homo sapiens, UniProt P00734;P00734 328-363;364-622). Nature of the series: competition; 100-fold excess over biotinylated AYA1809007; 20 mM Tris pH 7.5, 150 mM NaCl, 0.1% BSA, 0.1% Tween 20, 100 ug/mL sheared salmon sperm DNA, 1 h, room temperature; thrombin coated at 250 nM.
The target in series [2] is T1, alpha-thrombin. Nature of the series: ELISA; 20 mM Tris pH 7.5, 150 mM NaCl, 0.1% BSA, 0.1% Tween 20, 100 ug/mL sheared salmon sperm DNA, 1 h, room temperature; thrombin coated at 250 nM.
Series [3] deals with T1, alpha-thrombin. As to the kind of experiment: ELISA-based binding with competition; 100-fold excess unlabeled competitor as control; 20 mM Tris pH 7.5, 150 mM NaCl, 0.1% BSA, 0.1% Tween 20, 100 ug/mL sheared salmon sperm DNA, 1 h, room temperature; thrombin coated at 250 nM.

Consider AGGGGCTCTAGGGTGGGTAGGATGGTGAGACCGCAGCGT (structured_DNA) [AYA1809007 unlabeled], for which the binding result in the series with alpha-thrombin [1] is recorded as “binds”. Turning to AGGGGCTCTAGGGTGGGTAGGATGGTGAGACCGCAGCGT (structured_DNA) [AYA1809007], the binding result with alpha-thrombin [2] is given as “binds”. Regarding TCGTCAAGGTACGGTTGGGGGGGTGGGTGTTGACGTTGAA (structured_DNA) [AYA1809004], in the series with alpha-thrombin [3], the dissociation constant (Kd) is 0.013 µM. The same measure, in the same setting: under GCGGTGTTGCTGGGGTTGGGAGGTTGGAGGAAGCAATCGC (structured_DNA) [AYA1809002] stands 0.01 µM.
